From paper doi:10.1101/2022.04.06.487297 (bioRxiv, 2022) come the findings set out here.

This experiment has as its target cortactin SH3 domain (UniProt Q60598 488-546). Description: NMR titration.

Sequence of cortactin SH3 domain (Q60598 488-546): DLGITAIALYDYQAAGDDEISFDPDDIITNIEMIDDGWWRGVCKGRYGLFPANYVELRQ

Turning to TAFQEPPPKPSRPKYRPPP [Pyk2-PRR2 peptide], binding was characterised by a dissociation constant (Kd) of 40 ± 5 µM. As for TAFQEPAPKASQAQYRPPP [Pyk2 super-mutant peptide], the figure is greater than 1000 µM; as for EFTGPPQKPPRLGAQS [Pyk2-PRR3 peptide], 650 ± 10 µM.
